Reference: publication PMC5529588, “OsFH15, a class I formin, interacts with microfilaments and microtubules to regulate grain size via affecting cell expansion in rice” (Scientific Reports, 2017)

Target: actin filaments (rabbit muscle actin, polymerized) (rabbit, UniProt P68135 1-377)
Assay: co-sedimentation; high-speed cosedimentation; 3 uM actin (AFs) with 0.25-8 uM FH1FH2; bound against free protein fitted with a hyperbolic function; three independent experiments; methods in the supplement
Conditions: both partners purified

Kd: 1510 ± 70 nM
B1: OsFH15 FH2 (truncated recombinant protein containing the FH2 domain of OsFH15) (domain or fragment)
chain: not shown
notes: OsFH15, class I formin of Oryza sativa, 788 a.a; source: E. coli Transetta (DE3), pET-30a(+), purified (Ni-NTA)
